Results published in publication PMC4094350.
Like-named read-outs stand apart in the source and are kept apart here.

What was measured:
GFP-Paxillin [1] = target: GFP-Paxillin (UniProt P49023); test: FRET or BRET
GFP-Paxillin [2] = target: GFP-Paxillin (UniProt P49023); test: FRET or BRET; remark: listed apart in the source
GFP-Paxillin [3] = target: GFP-Paxillin (UniProt P49023); test: FRET or BRET; remark: listed apart in the source
FAK FAT = FAK FAT (UniProt Q05397); test: ITC; details: cited from earlier work
UniProt Q05397, sequence (Q05397 914-1045): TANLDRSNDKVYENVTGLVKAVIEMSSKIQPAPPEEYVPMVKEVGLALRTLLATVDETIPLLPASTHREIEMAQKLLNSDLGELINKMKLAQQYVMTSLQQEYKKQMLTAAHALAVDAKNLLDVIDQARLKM

| Kd (GFP-Paxillin [1]) | Kd (GFP-Paxillin [2]) | Kd (GFP-Paxillin [3]) | Substance | Kd (FAK FAT) |
| --- | --- | --- | --- | --- |
| 209 nM | 209 nM | 367 nM | FAT-mCherry (from UniProt P34152 1-1052) (domain or fragment) |  |
|  |  |  | paxillin LD peptide LD motif (from UniProt P49023) | 10000 nM |
